Laboratory results reported in the supplement of paper PMC9732359.
± gives the uncertainty stated by the source.

Assay: protein stability index of a GFP-peptide fusion (yeast GPS) (PSI 1-4); higher = more stable; sorted into four equal gates, so the index is relative within each strain
Conditions: pdr5∆
Summary of the method: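 Peptides tiling yeast proteins in 17-residue segments were fused downstream of GFP, with Cherry expressed from the same plasmid. As a pooled library in yeast, mid-log cultures grown in leucine-free medium were sorted into four equal gates by GFP/Cherry fluorescence ratio. Gate plasmids were PCR-amplified and Illumina-sequenced, and barcodes linked reads to strains. Each peptide received a protein stability index equal to the sum of each gate's read frequency times its gate number.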

Sequence | protein stability index
TPATIVKKPTFTFGQST [YOR098C/NUP1] | 3.13 ± 0.074
TPDANLISKPAKKNNFI [UBP6] | 3.05 ± 0.1
TPDASKPSFSFGVPNSS [YLR335W/NUP2] | 3.14 ± 0.086
TPDDDEIDVENHDRINI [RPN8] | 3.5 ± 0.25
TPGLTFNAIDLARHLPA [RPC82] | 2.73 ± 0.061
TPIAGRFTPGSFTNYIT [RPS0A] | 2.99 ± 0.072
TPLSIKIMVAEWYLSHL [SRB8] | 2.59 ± 0.095
TPSFSFGKTTANLPANS [YLR335W/NUP2] | 2.96 ± 0.1
TPSNIRSLCEVLVYDDK [RPC34] | 1.84 ± 0.078
TQAAEFLSPYISTHLKT [IRR1] | 2.32 ± 0.059
TQHEEEEEQDTGESEES [IRR1] | 3.29 ± 0.1
TQLQICLDQMTEQFCAT [SRB7] | 2.88 ± 0.065
TQPKATSTGTTIVGVKF [PUP1] | 3.52 ± 0.1
TQQAVNLEKNYLAKLSK [IRR1] | 3.34 ± 0.23
TQRIMTNVIAFAFWNLL [YLR018C/POM34] | 2.13 ± 0.058
TQTGQNTGPSTGGLFGA [YGL172W/NUP49] | 3.34 ± 0.094
TRAAKIAPRPLDLLRPV [RPL13A] | 3.27 ± 0.11
TRAKIGGLNDPRLGSID [RPO21] | 2.22 ± 0.077
TRGGASALIENNLFRII [YJL039C/NUP192] | 2.41 ± 0.052
TRISSQFEKSRKVSGPR [RET1] | 2.92 ± 0.18
TRLPAFERPAVKEEKED [RPC53] | 2.71 ± 0.23
TRNPDAPKGSTDPKELY [RPC40] | 3.63 ± 0.29
TRQASDLASSKEVLAKI [RPN5] | 2.96 ± 0.06
TRVNAQLESYEYMVQYI [RRI1] | 3.23 ± 0.073
TSDPVMHKQLAYILAAQ [RPN1] | 2.52 ± 0.17

Sequence | protein stability index
TSFDIKREGRNELQEER [POP6] | 3.02 ± 0.15
TSIEKSSEILSYLSNSL [YML103C/NUP188] | 2.57 ± 0.076
TSLITAVYGPRSIRGSF [MTR3] | 2.72 ± 0.086
TSLSSKDLSNYRKTEGI [YMR153W/NUP53] | 3.25 ± 0.085
TSLTSIKWENAFVSVYS [PRP8] | 2.62 ± 0.07
TSPFGGARPGRVARRNA [RPS9A] | 2.84 ± 0.28
TSPIDIREKVAKQALDL [SNF2] | 3.17 ± 0.19
TSQMDLARDTPSANNSS [RRP4] | 1.46 ± 0.064
TSQNPQRDAEISQPKSM [BRR2] | 3.04 ± 0.27
TSRTIVRNVKGPVREND [RPS28A] | 3.16 ± 0.1
TTALLKDEEIEKLLQQD [MED8] | 3.13 ± 0.13
TTAVEDEDDDLDEDDVN [RPB4] | 3.27 ± 0.1
TTDANGSKENYQELGSL [MED2] | 3.09 ± 0.081
TTDSLTKVLQADLPGSY [YMR129W/POM152] | 2.79 ± 0.14
TTEMLDKLMVTSIRSTP [MED6] | 2.45 ± 0.12
TTIFVKSTTPYVSALKR [POP7] | 2.27 ± 0.077
TTLHGPGFQLPNRITLT [SRB8] | 2.84 ± 0.1
TTSRFSKQVTDYYQSIY [FAS2] | 2.87 ± 0.071
TTTNTDQNNATMGEETA [SNF12] | 3.37 ± 0.11
TTVIGIRGSDQAIPKFQ [RPN2] | 2.74 ± 0.23
TTVSNDLENSPLKTELE [SSN2] | 3.16 ± 0.096
TVAVMSYSGYDIEDALV [RET1] | 2.15 ± 0.11
TVDVSSPTENGVFDPAS [RPL22A] | 3.17 ± 0.064
TVHKTFEGNVATKAING [PRP8] | 2.22 ± 0.062
TVIEGVKEESQPDENTK [SWI3] | 3.28 ± 0.15

Sequence | protein stability index
TVIRGNSIISLEALDAI [SMX2] | 2.43 ± 0.09
TVLFFIGVRCYEAYPNT [FAS1] | 1.23 ± 0.049
TVNHSEKFPNDVKLLNP [RPP1] | 2.87 ± 0.034
TVPRIVQLLSKSHNAHV [RPN2] | 1.69 ± 0.044
TVQNEILGDLGKEFGTT [FAS2] | 2.34 ± 0.25
TVQYVRFFWKRSTNKKS [UBP6] | 1.35 ± 0.047
TVSILQESSSLRLLEVT [POP8] | 2.38 ± 0.048
TVTLNKNREVVQVSKAG [RRP45] | 2.98 ± 0.075
TVVQVYDNGQVFPSSIL [RPP0] | 1.29 ± 0.13
TYLNEVLEKDAAIVKKY [YGR119C/NUP57] | 3.37 ± 0.093
TYVEELFPIVKKHGKTD [YJL039C/NUP192] | 3.44 ± 0.11
VAATITSSQKEPFFLVT [SRB8] | 2.17 ± 0.086
VAIGNTYGFLTPNLWAE [RPS2] | 2.49 ± 0.054
VANQTSATFLRIVGSEL [RPT2] | 2.29 ± 0.096
VCAKLFGNIQKVVNFWL [RPO21] | 1.93 ± 0.07
VECTISILRKSSPEEPF [SNF12] | 1.46 ± 0.064
VEDGNILVFQVSMKANK [RPL25] | 2.46 ± 0.047
VEEDHTLGNALRYVIMK [RPC19] | 2.75 ± 0.071
VEETEVPTVPPSQSEEQ [MED4] | 2.69 ± 0.1
VEGISEVQARKSKSVSF [RPT5] | 3.49 ± 0.11
VENELLQVDVDIAGQRD [RRP42] | 2.12 ± 0.28
VEYLTRYVAGVQQRYTQ [PRE6] | 1.89 ± 0.086
VEYNLFTNRSTMMANFE [BRN1] | 2.4 ± 0.18
VFGASDKQAEGTPLFTF [YOR098C/NUP1] | 2.86 ± 0.087
VFGTIIPKISDYIEFNI [YJL039C/NUP192] | 1.68 ± 0.22

Sequence | protein stability index
VFKTHSYRGVDLEKLLE [RPS15] | 3.18 ± 0.062
VFPSSILDITDEELVSH [RPP0] | 2.94 ± 0.1
VFSESCSNESFASIPVS [SNU114] | 3.29 ± 0.068
VFTMKELAQYMKTNVHT [RGR1] | 2.84 ± 0.13
VFVGSGKGTGKTAMAEL [BRR2] | 3.54 ± 0.15
VFYRMQQLRRALPDVVV [RPO31] | 1.93 ± 0.035
VGDVVGGALDNPFEDDM [BRN1] | 3.37 ± 0.15
VGKQIVNIPSFMVRLDS [RPS9A] | 2.69 ± 0.12
VGLRSNTHAVLVALKRN [PRE5] | 1.45 ± 0.039
VGLSQPDAKIQVRRDIP [YMR129W/POM152] | 2.76 ± 0.14
VGPHFKQANNFLWPFKL [RPL7A] | 3.05 ± 0.098
VGSPLTVSILQESSSLR [POP8] | 3.01 ± 0.057
VHKLRHYLVNLTSPAFG [GRR1] | 1.38 ± 0.035
VHPFHVLRINKMLSCAG [RPL10] | 1.21 ± 0.075
VHRDDPALVGKLRGDLR [SNF6] | 3.2 ± 0.088
VIDIGASGCNVTPIIDG [ARP7] | 3.03 ± 0.084
VIIRRLKTRDWIVVLPW [POP1] | 1.46 ± 0.13
VIRIPMQENDKINQERL [CSI1] | 2.83 ± 0.085
VIVTDPRLDAQAIKEAS [RPS0B] | 3.1 ± 0.083
VIYRNSLYKVSFLEKPK [YMR129W/POM152] | 2.61 ± 0.081
VKALRNVPGVETANVAS [RPL4A] | 3.15 ± 0.062
VKCEELSNTLACYRTIM [RRP40] | 2.49 ± 0.093
VKDEAFDDLLKPVYKGK [RET1] | 3.32 ± 0.15
VKDLGQGLKLAKKHKLN [SMC3] | 2.92 ± 0.13
VKEESQPDENTKEMDEV [SWI3] | 2.81 ± 0.24
